# Patent US20120178701A1 (PALATIN TECHNOLOGIES, published 2012)
# Bridge positions count the residues as written; N and C are the ends. Square brackets hold non-standard residues; d marks the D form. * marks the point of attachment. Pro(4R-Bn) = O=C(O)[C@@H]1C[C@@H](Cc2ccccc2)CN1; Orn = NCCC[C@H](N)C(=O)O; Dab = NCC[C@H](N)C(=O)O; NHcPr = C1CC1N*
# Target: T1, human recombinant melanocortin-4 receptor (human, UniProt P32245 1-332)
# T1 construct: whole, on cells; cAMP assays used the whole cells; also called hMC4-R; MC4-R
# Assay: competitive inhibition of Eu-NDP-α-MSH (TRF), hMC4-R HEK-293 membranes
# Method: After incubation for 90 minutes at 37° C., the reaction was stopped by filtration over AcroWell 96-well filter plates (Pall Life Sciences). The filter plates were washed 4 times with 200 μL of ice-cold phosphate-buffered saline. DELFIA Enhancement solution (PerkinElmer Life Sciences) was added to each well. The plates were incubated on a shaker for 15 minutes and read at 340 nm excitation and 615 nm emission wavelengths. Each assay was conducted in duplicate and mean values were utilized. Ki values were determined by curve-fitting with Graph-Pad Prism® software using a one-site fixed-slope competition binding model.
# 9.1 Peptides of the following structures were synthesized by the general methods described above, and averaged MC4-R Ki values for peptides were determined as indicated. […] Ki values marked “ND” were not determined.
# T1 sequence (P32245 whole entry): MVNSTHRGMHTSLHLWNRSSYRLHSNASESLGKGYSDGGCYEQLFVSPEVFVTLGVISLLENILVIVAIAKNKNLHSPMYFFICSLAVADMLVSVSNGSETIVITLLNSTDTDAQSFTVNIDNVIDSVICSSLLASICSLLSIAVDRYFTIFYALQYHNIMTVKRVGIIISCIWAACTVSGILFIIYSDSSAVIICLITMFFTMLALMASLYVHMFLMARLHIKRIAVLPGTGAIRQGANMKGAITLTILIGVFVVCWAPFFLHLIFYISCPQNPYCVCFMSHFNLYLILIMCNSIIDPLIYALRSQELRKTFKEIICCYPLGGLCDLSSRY
row,Ki [nM],Binder
1,8,"Ac-RD[Pro(4R-2-Cl-Bzl)][dF]RWK-NH2 (lactam 2-7, also called peptide No. 123) [Ac-Arg-cyclo(Asp-Pro(4R-2-Cl-Bzl)-D-Phe-Arg-Trp-Lys)-NH2]"
2,3,"Ac-RD[Pro(4R-Bn)][dF]RWK-NH2 (lactam 2-7, also called peptide No. 18) [Ac-Arg-cyclo(Asp-Pro(4R-Bzl)-D-Phe-Arg-Trp-Lys)-NH2]"
3,19,"Ac-RD[Pro(4R-3-Cl-Bzl)][dF]RWK-NH2 (lactam 2-7, also called peptide No. 124) [Ac-Arg-cyclo(Asp-Pro(4R-3-Cl-Bzl)-D-Phe-Arg-Trp-Lys)-NH2]"
4,9,"Ac-RE[Orn][dF]RW[Orn]-NH2 (lactam 2-7, also called peptide No. 104) [Ac-Arg-cyclo(Glu-Orn-D-Phe-Arg-Trp-Orn)-NH2]"
5,40,"Ac-[dR]EH[dF]RW[Orn]-OH (lactam 2-7, also called peptide No. 85) [Ac-D-Arg-cyclo(Glu-His-D-Phe-Arg-Trp-Orn)-OH]"
6,1,"Ac-RKH[dF]RWD-NH2 (lactam 2-7, also called peptide No. 96) [Ac-Arg-cyclo(Lys-His-D-Phe-Arg-Trp-Asp)-NH2]"
7,32,"RDNFRWK (HELM PEPTIDE1{[ac].R.D.N.[dF].R.W.K.[am]}$PEPTIDE1,PEPTIDE1,3:R3-8:R3$$$V2.0; SMILES CC(=O)N[C@@H](CCCNC(=N)N)C(=O)N[C@H]1CC(=O)NCCCC[C@@H](C(N)=O)NC(=O)[C@H](Cc2c[nH]c3ccccc23)NC(=O)[C@H](CCCNC(=N)N)NC(=O)[C@@H](Cc2ccccc2)NC(=O)[C@H](CC(N)=O)NC1=O, also called peptide No. 29) [Ac-Arg-cyclo(Asp-Asn-D-Phe-Arg-Trp-Lys)-NH2]"
8,9,"KDHFRWK (HELM PEPTIDE1{[ac].K.D.H.[dF].R.W.K.[am]}$PEPTIDE1,PEPTIDE1,3:R3-8:R3$$$V2.0; SMILES CC(=O)N[C@@H](CCCCN)C(=O)N[C@H]1CC(=O)NCCCC[C@@H](C(N)=O)NC(=O)[C@H](Cc2c[nH]c3ccccc23)NC(=O)[C@H](CCCNC(=N)N)NC(=O)[C@@H](Cc2ccccc2)NC(=O)[C@H](Cc2c[nH]cn2)NC1=O, also called peptide No. 135) [Ac-Lys-cyclo(Asp-His-D-Phe-Arg-Trp-Lys)-NH2]"
9,46,"Ac-[dR]DA[dF]RWK-NH2 (lactam 2-7, also called peptide No. 70) [Ac-D-Arg-cyclo(Asp-Ala-D-Phe-Arg-Trp-Lys)-NH2]"
10,37,"RDWFRWK (HELM PEPTIDE1{[ac].R.D.W.[dF].R.W.K.[am]}$PEPTIDE1,PEPTIDE1,3:R3-8:R3$$$V2.0; SMILES CC(=O)N[C@@H](CCCNC(=N)N)C(=O)N[C@H]1CC(=O)NCCCC[C@@H](C(N)=O)NC(=O)[C@H](Cc2c[nH]c3ccccc23)NC(=O)[C@H](CCCNC(=N)N)NC(=O)[C@@H](Cc2ccccc2)NC(=O)[C@H](Cc2c[nH]c3ccccc23)NC1=O, also called peptide No. 36) [Ac-Arg-cyclo(Asp-Trp-D-Phe-Arg-Trp-Lys)-NH2]"
11,86,"Ac-RDQ[dF]RWK-NH2 (lactam 2-7, any difference is only in the drawings; also called peptide No. 78) [Ac-Arg-cyclo(Asp-Gln-D-Phe-Arg-Trp-Lys)-NH2]"
12,140,"Ac-RDT[dF]RWK-NH2 (lactam 2-7, also called peptide No. 35) [Ac-Arg-cyclo(Asp-Thr-D-Phe-Arg-Trp-Lys)-NH2]"
13,64,Ac-RDQ[dF]RWK-NHcPr (lactam 2-7) [Ac-Arg-cyclo(Asp-Gln-D-Phe-Arg-Trp-Lys)-NH-cyclopropyl]
14,2960,"RDKFKWK (HELM PEPTIDE1{[ac].R.D.K.[dF].K.W.K.[am]}$PEPTIDE1,PEPTIDE1,3:R3-8:R3$$$V2.0; SMILES CC(=O)N[C@@H](CCCNC(=N)N)C(=O)N[C@H]1CC(=O)NCCCC[C@@H](C(N)=O)NC(=O)[C@H](Cc2c[nH]c3ccccc23)NC(=O)[C@H](CCCCN)NC(=O)[C@@H](Cc2ccccc2)NC(=O)[C@H](CCCCN)NC1=O, also called peptide No. 7) [Ac-Arg-cyclo(Asp-Lys-D-Phe-Lys-Trp-Lys)-NH2]"
15,47,"RDHFRWK (HELM PEPTIDE1{[ac].R.D.H.[C[C@](Cc1ccccc1)(N[*:1])C(=O)[*:2]].R.W.K.[am]}$PEPTIDE1,PEPTIDE1,3:R3-8:R3$$$V2.0; SMILES CC(=O)N[C@@H](CCCNC(=N)N)C(=O)N[C@H]1CC(=O)NCCCC[C@@H](C(N)=O)NC(=O)[C@H](Cc2c[nH]c3ccccc23)NC(=O)[C@H](CCCNC(=N)N)NC(=O)[C@@](C)(Cc2ccccc2)NC(=O)[C@H](Cc2c[nH]cn2)NC1=O, also called peptide No. 60) [Ac-Arg-cyclo(Asp-His-D-(alpha-Me)Phe-Arg-Trp-Lys)-NH2]"
16,533,"RDHFKWK (HELM PEPTIDE1{[ac].R.D.H.[dF].K.W.K.[am]}$PEPTIDE1,PEPTIDE1,3:R3-8:R3$$$V2.0; SMILES CC(=O)N[C@@H](CCCNC(=N)N)C(=O)N[C@H]1CC(=O)NCCCC[C@@H](C(N)=O)NC(=O)[C@H](Cc2c[nH]c3ccccc23)NC(=O)[C@H](CCCCN)NC(=O)[C@@H](Cc2ccccc2)NC(=O)[C@H](Cc2c[nH]cn2)NC1=O, also called peptide No. 6) [Ac-Arg-cyclo(Asp-His-D-Phe-Lys-Trp-Lys)-NH2]"

row,Ki [nM],Binder
1,43,"RDYFRWK (HELM PEPTIDE1{[ac].R.D.Y.[dF].R.W.K.[am]}$PEPTIDE1,PEPTIDE1,3:R3-8:R3$$$V2.0; SMILES CC(=O)N[C@@H](CCCNC(=N)N)C(=O)N[C@H]1CC(=O)NCCCC[C@@H](C(N)=O)NC(=O)[C@H](Cc2c[nH]c3ccccc23)NC(=O)[C@H](CCCNC(=N)N)NC(=O)[C@@H](Cc2ccccc2)NC(=O)[C@H](Cc2ccc(O)cc2)NC1=O, also called peptide No. 11) [Ac-Arg-cyclo(Asp-Tyr-D-Phe-Arg-Trp-Lys)-NH2]"
2,33,"RDLFRWK (HELM PEPTIDE1{[ac].R.D.L.[dF].R.W.K.[am]}$PEPTIDE1,PEPTIDE1,3:R3-8:R3$$$V2.0; SMILES CC(=O)N[C@@H](CCCNC(=N)N)C(=O)N[C@H]1CC(=O)NCCCC[C@@H](C(N)=O)NC(=O)[C@H](Cc2c[nH]c3ccccc23)NC(=O)[C@H](CCCNC(=N)N)NC(=O)[C@@H](Cc2ccccc2)NC(=O)[C@H](CC(C)C)NC1=O, also called peptide No. 12) [Ac-Arg-cyclo(Asp-Leu-D-Phe-Arg-Trp-Lys)-NH2]"
3,35,"RDMFRWK (HELM PEPTIDE1{[ac].R.D.M.[dF].R.W.K.[am]}$PEPTIDE1,PEPTIDE1,3:R3-8:R3$$$V2.0; SMILES CSCC[C@@H]1NC(=O)[C@@H](NC(=O)[C@H](CCCNC(=N)N)NC(C)=O)CC(=O)NCCCC[C@@H](C(N)=O)NC(=O)[C@H](Cc2c[nH]c3ccccc23)NC(=O)[C@H](CCCNC(=N)N)NC(=O)[C@@H](Cc2ccccc2)NC1=O, also called peptide No. 38) [Ac-Arg-cyclo(Asp-Met-D-Phe-Arg-Trp-Lys)-NH2]"
4,19,"RDIFRWK (HELM PEPTIDE1{[ac].R.D.I.[dF].R.W.K.[am]}$PEPTIDE1,PEPTIDE1,3:R3-8:R3$$$V2.0; SMILES CC[C@H](C)[C@@H]1NC(=O)[C@@H](NC(=O)[C@H](CCCNC(=N)N)NC(C)=O)CC(=O)NCCCC[C@@H](C(N)=O)NC(=O)[C@H](Cc2c[nH]c3ccccc23)NC(=O)[C@H](CCCNC(=N)N)NC(=O)[C@@H](Cc2ccccc2)NC1=O, also called peptide No. 34) [Ac-Arg-cyclo(Asp-Ile-D-Phe-Arg-Trp-Lys)-NH2]"
5,6,"Ac-REH[dF]RW[Orn]-NHEt (lactam 2-7, also called peptide No. 109) [Ac-Arg-cyclo(Glu-His-D-Phe-Arg-Trp-Orn)-NH-Et]"
6,12,"Ac-R[Orn]H[dF]RWE-OH (lactam 2-7, also called peptide No. 84) [Ac-Arg-cyclo(Orn-His-D-Phe-Arg-Trp-Glu)-OH]"
7,4,"Ac-[dR][Orn]H[dF]RWE-NH2 (lactam 2-7, also called peptide No. 98) [Ac-D-Arg-cyclo(Orn-His-D-Phe-Arg-Trp-Glu)-NH2]"
8,1,"Ac-REH[dF]RW[Orn]-NHcPr (lactam 2-7, also called peptide No. 110) [Ac-Arg-cyclo(Glu-His-D-Phe-Arg-Trp-Orn)-NH-cyclopropyl]"
9,1,"Ac-REH[dF]RW[Orn]-NH2 (lactam 2-7, also called peptide No. 64) [Ac-Arg-cyclo(Glu-His-D-Phe-Arg-Trp-Orn)-NH2]"
10,113,"REKFRWX (HELM PEPTIDE1{[ac].R.E.K.[dF].R.W.[Orn]}$PEPTIDE1,PEPTIDE1,3:R3-8:R3$$$V2.0; SMILES CC(=O)N[C@@H](CCCNC(=N)N)C(=O)N[C@H]1CCC(=O)NCCC[C@@H](C(=O)O)NC(=O)[C@H](Cc2c[nH]c3ccccc23)NC(=O)[C@H](CCCNC(=N)N)NC(=O)[C@@H](Cc2ccccc2)NC(=O)[C@H](CCCCN)NC1=O, also called peptide No. 89) [Ac-Arg-cyclo(Glu-Lys-D-Phe-Arg-Trp-Orn)-OH]"
11,2,"Ac-[dR]D[Pro(4R-Bn)][dF]RWK-NH2 (lactam 2-7, also called peptide No. 72) [Ac-D-Arg-cyclo(Asp-Pro(4R-Bzl)-D-Phe-Arg-Trp-Lys)-NH2]"
12,3,"Ac-R[Orn][Dab][dF]RWE-NH2 (lactam 2-7, also called peptide No. 119) [Ac-Arg-cyclo(Orn-Dab-D-Phe-Arg-Trp-Glu)-NH2]"
13,19,"RXAFRWE (HELM PEPTIDE1{[ac].R.[Orn].A.[dF].R.W.E.[am]}$PEPTIDE1,PEPTIDE1,3:R3-8:R3$$$V2.0; SMILES CC(=O)N[C@@H](CCCNC(=N)N)C(=O)N[C@H]1CCCNC(=O)CC[C@@H](C(N)=O)NC(=O)[C@H](Cc2c[nH]c3ccccc23)NC(=O)[C@H](CCCNC(=N)N)NC(=O)[C@@H](Cc2ccccc2)NC(=O)[C@H](C)NC1=O, also called peptide No. 120) [Ac-Arg-cyclo(Orn-Ala-D-Phe-Arg-Trp-Glu)-NH2]"
14,8,Ac-[dK][Orn]H[dF]RWE-NH2 (lactam 2-7) [Ac-D-Lys-cyclo(Orn-His-D-Phe-Arg-Trp-Glu)-NH2]
15,3,"Ac-K[Orn]H[dF]RWE-NH2 (lactam 2-7, also called peptide No. 132) [Ac-Lys-cyclo(Orn-His-D-Phe-Arg-Trp-Glu)-NH2]"

# Target: T1, human recombinant melanocortin-4 …
# Assay: cell-based or functional assay
row,hMC4-R Emax (%),Binder
1,89,Ac-[dR][Orn]Q[dF]RWE-NH2 (lactam 2-7) [Ac-D-Arg-cyclo(Orn-Gln-D-Phe-Arg-Trp-Glu)-NH2]

# Target: human recombinant melanocortin-1 receptor (human, UniProt Q01726 1-317)
# Assay: cell-based or functional assay
# human recombinant melanocortin-1 receptor, sequence (Q01726 whole entry): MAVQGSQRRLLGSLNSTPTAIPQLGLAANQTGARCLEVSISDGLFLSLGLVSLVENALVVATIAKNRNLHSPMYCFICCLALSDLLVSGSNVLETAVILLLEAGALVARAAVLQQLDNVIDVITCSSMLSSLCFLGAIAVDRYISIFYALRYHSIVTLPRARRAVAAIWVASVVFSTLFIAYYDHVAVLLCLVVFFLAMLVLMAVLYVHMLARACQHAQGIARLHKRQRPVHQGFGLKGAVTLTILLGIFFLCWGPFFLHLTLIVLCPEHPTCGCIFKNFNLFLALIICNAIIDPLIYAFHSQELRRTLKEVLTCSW
row,hMC1-R Emax (%),Binder
1,89,Ac-R[Orn]Q[dF]RWE-NH2 (lactam 2-7) [Ac-Arg-cyclo(Orn-Gln-D-Phe-Arg-Trp-Glu)-NH2]
2,85,Ac-[dR][Orn]Q[dF]RWE-NH2 (lactam 2-7) [Ac-D-Arg-cyclo(Orn-Gln-D-Phe-Arg-Trp-Glu)-NH2]
